# Reference: patent publication US8461305B2, “L-fucose α1→6 specific lectin” (J-Oil Mills, Inc., priority 2008, dated 2013)
# What was measured:
# [1] = frontal affinity chromatography (FAC), association constant to PA sugar chains having α1→6 L-fucose; assay type: binding; settings: 25 degrees C.
# Procedure, shortened: (§1)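 Lectin coupled via primary amines to NHS-activated sepharose in a miniature column, run in TBS (pH 7.4) at 0.125 ml/min and 25 degrees C. PA sugar chains (3.75 nM or 7.5 nM) applied in excess, with elution monitored by fluorescence (ex 310/em 380 nm). Ka calculated from front-end delay (V−Vo) versus PA rhamnose and effective ligand amount (Bt).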
# [2] = frontal affinity chromatography (FAC), association constant to PA sugar chains without L-fucose; assay type: binding; settings: 25 degrees C.
# Procedure, shortened: as §1
molecule,measurement,setting,value
Lens culinaris agglutinin (protein) chain 1: TETTSFSITKFSPDQKNLIFQGDGYTTKGKLTLTKAVKSTVGRALYSTPIHIWDRDTGNVANFVTSFTFVIDAPSSYNVADEFTFFIAPVDTKPQTGGGYLGVFNSKEYDKTSQTVAVEFDTFYNAAWDPSNKERHIGIDVNSIKSVNTKSWNLQNGERANVVIAFNAATNVLTVTLTYP chain 2: VTSYTLNEVVPLKDVVPEWVRIGFSATTGAEFAAHEVHSWSFHSELGGTSSS,association constant Ka,[1]; Sugar chain No. 015,56000 M⁻¹
same,association constant Ka,[1]; Sugar chain No. 201,500000 M⁻¹
same,association constant Ka,[1]; Sugar chain No. 202,110000 M⁻¹
same,association constant Ka,[1]; Sugar chain No. 203,73000 M⁻¹
same,association constant Ka,[1]; Sugar chain No. 401,42000 M⁻¹
same,association constant Ka,[1]; Sugar chain No. 402,59000 M⁻¹
same,association constant Ka,[1]; Sugar chain No. 403,99000 M⁻¹
same,association constant Ka,[1]; Sugar chain No. 404,58000 M⁻¹
same,association constant Ka,[1]; Sugar chain No. 405,47000 M⁻¹
same,association constant Ka,[1]; Sugar chain No. 406,18000 M⁻¹
same,association constant Ka,[1]; Sugar chain No. 407,1000 M⁻¹
same,association constant Ka,[1]; Sugar chain No. 410,<1000 M⁻¹
same,association constant Ka,[1]; Sugar chain No. 413,<1000 M⁻¹
same,association constant Ka,[1]; Sugar chain No. 418,<1000 M⁻¹
same,association constant Ka,[1]; Sugar chain No. 601,30000 M⁻¹
same,association constant Ka,[1]; Sugar chain No. 602,24000 M⁻¹
same,association constant Ka,[2]; Sugar chain No. 001,<1000 M⁻¹
same,association constant Ka,[2]; Sugar chain No. 002,<1000 M⁻¹
same,association constant Ka,[2]; Sugar chain No. 003,7200 M⁻¹
same,association constant Ka,[2]; Sugar chain No. 004,<1000 M⁻¹
same,association constant Ka,[2]; Sugar chain No. 005,<1000 M⁻¹
same,association constant Ka,[2]; Sugar chain No. 006,14000 M⁻¹
same,association constant Ka,[2]; Sugar chain No. 007,<1000 M⁻¹
same,association constant Ka,[2]; Sugar chain No. 008,18000 M⁻¹
same,association constant Ka,[2]; Sugar chain No. 009,18000 M⁻¹
same,association constant Ka,[2]; Sugar chain No. 010,13000 M⁻¹
same,association constant Ka,[2]; Sugar chain No. 011,14000 M⁻¹
same,association constant Ka,[2]; Sugar chain No. 012,25000 M⁻¹
same,association constant Ka,[2]; Sugar chain No. 013,17000 M⁻¹
same,association constant Ka,[2]; Sugar chain No. 014,17000 M⁻¹
same,association constant Ka,[2]; Sugar chain No. 101,<1000 M⁻¹
same,association constant Ka,[2]; Sugar chain No. 103,<1000 M⁻¹
same,association constant Ka,[2]; Sugar chain No. 104,<1000 M⁻¹
same,association constant Ka,[2]; Sugar chain No. 105,<1000 M⁻¹
same,association constant Ka,[2]; Sugar chain No. 107,<1000 M⁻¹
same,association constant Ka,[2]; Sugar chain No. 108,<1000 M⁻¹
same,association constant Ka,[2]; Sugar chain No. 301,<1000 M⁻¹
same,association constant Ka,[2]; Sugar chain No. 304,<1000 M⁻¹
same,association constant Ka,[2]; Sugar chain No. 305,<1000 M⁻¹
same,association constant Ka,[2]; Sugar chain No. 307,<1000 M⁻¹
same,association constant Ka,[2]; Sugar chain No. 308,<1000 M⁻¹
same,association constant Ka,[2]; Sugar chain No. 313,<1000 M⁻¹
same,association constant Ka,[2]; Sugar chain No. 314,<1000 M⁻¹
same,association constant Ka,[2]; Sugar chain No. 323,<1000 M⁻¹
same,association constant Ka,[2]; Sugar chain No. 501,<1000 M⁻¹
same,association constant Ka,[2]; Sugar chain No. 502,<1000 M⁻¹
same,association constant Ka,[2]; Sugar chain No. 503,<1000 M⁻¹
same,association constant Ka,[2]; Sugar chain No. 504,<1000 M⁻¹
same,association constant Ka,[2]; Sugar chain No. 701,<1000 M⁻¹
same,association constant Ka,[2]; Sugar chain No. 702,<1000 M⁻¹
same,association constant Ka,[2]; Sugar chain No. 703,<1000 M⁻¹
same,association constant Ka,[2]; Sugar chain No. 704,<1000 M⁻¹
same,association constant Ka,[2]; Sugar chain No. 705,<1000 M⁻¹
same,association constant Ka,[2]; Sugar chain No. 706,<1000 M⁻¹
same,association constant Ka,[2]; Sugar chain No. 707,<1000 M⁻¹
same,association constant Ka,[2]; Sugar chain No. 708,<1000 M⁻¹
same,association constant Ka,[2]; Sugar chain No. 709,<1000 M⁻¹
same,association constant Ka,[2]; Sugar chain No. 710,<1000 M⁻¹
same,association constant Ka,[2]; Sugar chain No. 711,<1000 M⁻¹
same,association constant Ka,[2]; Sugar chain No. 712,<1000 M⁻¹
same,association constant Ka,[2]; Sugar chain No. 713,<1000 M⁻¹
same,association constant Ka,[2]; Sugar chain No. 715,<1000 M⁻¹
same,association constant Ka,[2]; Sugar chain No. 716,<1000 M⁻¹
same,association constant Ka,[2]; Sugar chain No. 717,<1000 M⁻¹
same,association constant Ka,[2]; Sugar chain No. 724,<1000 M⁻¹
same,association constant Ka,[2]; Sugar chain No. 725,<1000 M⁻¹
same,association constant Ka,[2]; Sugar chain No. 728 (as listed in Table 7),<1000 M⁻¹
same,association constant Ka,[2]; Sugar chain No. 732,<1000 M⁻¹
same,association constant Ka,[2]; Sugar chain No. 733,<1000 M⁻¹
same,association constant Ka,[2]; Sugar chain No. 734,<1000 M⁻¹
same,association constant Ka,[2]; Sugar chain No. 735,<1000 M⁻¹
same,association constant Ka,[2]; Sugar chain No. 736,<1000 M⁻¹
same,association constant Ka,[2]; Sugar chain No. 737,<1000 M⁻¹
same,association constant Ka,[2]; Sugar chain No. 738,<1000 M⁻¹
same,association constant Ka,[2]; Sugar chain No. 901,<1000 M⁻¹
same,association constant Ka,[2]; Sugar chain No. 902,<1000 M⁻¹
same,association constant Ka,[2]; Sugar chain No. 903,<1000 M⁻¹
same,association constant Ka,[2]; Sugar chain No. 905,<1000 M⁻¹
same,association constant Ka,[2]; Sugar chain No. 906,<1000 M⁻¹
same,association constant Ka,[2]; Sugar chain No. 907,<1000 M⁻¹
